Experimental data published in patent publication US10544441B2, “Method for biocatalytic whole cell reduction of dehydrocholic acid compounds, and 7-β-hydroxysteroid dehydrogenase mutants” (Pharmazell GmbH, priority 2014, dated 2020).
Where a chain is given by its changes, count along the chain named. Numbers in names are those of the source.

B1: G39D: 7β-HSDH from Collinsella aerofaciens with substitution G39D, produced as described in WO 2012/080504 (protein)
chain: MNLREKYGEWGLILGATEGVGKAFCEKIAAGGMNVVMVDRREEKLNVLAGEIRETYGVETKVVRADFSQPGAAETVFAATEGLDMGFMSYVACLHSFGKIQDTPWEKHEAMINVNVVTFLKCFHHYMRIFAAQDRGAVINVSSMTGISSSPWNGQYGAGKAFILKMTEAVACECEGTGVDVEVITLGTTLTPSLLSNLPGGPQGEAVMKIALTPEECVDEAFEKLGKELSVIAGQRNKDSVHDWKANHTEDEYIRYMGSFYRD
B2: DFK: 7β-HSDH mutant with amino acid substitutions G39D R40F R41K compared to the wild type sequence (protein)
chain: B1 chain with R40F, R41K
B3: DFKG: 7β-HSDH mutant with amino acid substitutions G39D R40F R41K K44G compared to the wild type sequence (protein)
chain: B1 chain with R40F, R41K, K44G
B4: DF: 7β-HSDH mutant with amino acid substitutions G39D R40F compared to the wild type sequence (protein)
chain: B1 chain with R40F
B5: G39D R40I: previously reported 7β-HSDH double mutant G39D R40I, reference, previously most active mutant (protein)
chain: B1 chain with R40I

Assays:
Format in all cases: biochemical
[1] = Enzyme kinetic study of 7β-HSDH mutants, DHCA kinetics with NADH as cofactor; details: 0.5 mM NADH; for vmax (maximal specific enzyme activity): substrate DHCA
Method: (§1) Enzyme activity determinations were performed at 30° C. in the microtiter plate photometer with a sample volume of 250 μL, in which the change in the NAD(P)H concentration (ε 340=6.22 mL μmol^−1 cm^−1) was monitored at a wavelength of λ=340 nm. Here, the activities were determined by linear regression in the part of the reaction proceeding linearly. For this, the sample to be tested was appropriately diluted with potassium phosphate buffer (50 mM, pH 8.0) and treated with substrate and cofactor. The final concentrations of substrate and cofactor were 10 mM DHCA and 100 μM NADPH for 7β-HSDH, 10 mM DHCA and 100 μM NADH for 3α-HSDH, and 200 mM glucose and 1000 μM NAD(P) for GDH.
The mutants created were assessed by means of enzyme kinetic studies. For the study of the DHCA kinetics, 0.5 mM NADH was used as the cofactor (FIG. 9), while for the study of the NADH kinetics, 10 mM DHCA was used as the substrate (FIG. 10). From the plots of the DHCA kinetics, the characteristic curve shapes of the Michaelis-Menten kinetics can be discerned for the 7β-HSDH mutants, and no substrate inhibition was observed. Accordingly, the classical Michaelis-Menten model (equation 1) was used for the evaluation of the kinetic parameters.
[formula] EAX: specific enzyme activity, U mg^−1=μmol min^−1 mg^−1 vmax: maximal specific enzyme activity, U mg^−1=μmol min^−1 mg^−1 cs: substrate or cofactor concentration, mol L^−1 Km: half-saturation concentration, mol L^−1

[2] = First activity assay of purified 7β-HSDH G39D with NADPH or NADH
Method: as §1, with “The final concentrations of substrate and cofactor were 10 mM DHCA and 100 μM NADPH for 7β-HSDH, 10 mM DHCA and 100 μM NADH for 3α-HSDH, and 200 mM glucose and 1000 μM NAD(P) for GDH.” left out
The G39D mutant of the 7β-HSDH was produced as described in WO 2012/080504. The protein was expressed with an N-terminal His tag and purified by IMAC.

[3] = Single-stage biotransformation of DHCA to 3,12-diketo-UDCA with purified NADH-dependent 7β-HSDH mutants; details: after 16 hrs; 0.2 mg mL^−1 7β-HSDH, 10 U mL^−1 GDH, 0.5 mM NAD, 50 mM DHCA, pH 8.0, 30° C.

| Molecule | Km [1] [µM] | vmax (maximal specific enzyme activity) [1] [U mg^−1] | NADH activity [2] | NADPH activity ([2]; 10 mM DHCA, 0.5 mM NADPH and pH 8.0) [U mg^−1] | vmax (maximal specific enzyme activity) ([1]; listed as 7β-HSDH DFK) [U mg^−1] | conversion of DHCA to 3,12-diketo-UDCA [3] | vmax (maximal specific enzyme activity) ([1]; listed as 7β-HSDH DFKG) [U mg^−1] |
| --- | --- | --- | --- | --- | --- | --- | --- |
| B1 | 660 ± 120 | 2.90 ± 0.16 | marked NADH activity | 0.040±0.005 |  |  |  |
| B2 | 290 ± 50 | 5.91 ± 0.23 |  |  | 5.91±0.23 |  |  |
| B3 | 380 ± 50 | 5.72 ± 0.19 |  |  |  | complete conversion | 5.72±0.19 |
| B4 | 420 ± 60 | 3.70 ± 0.13 |  |  |  |  |  |
| B5 | 920 ± 170 | 4.64 ± 0.27 |  |  |  |  |  |
